Measurements published in patent US20180162928A1 (Janssen / Centocor, published 2018).
Where a chain is given by its changes, count along the chain named.

B1: ISOP121AR5P1G6 (designed binder, not shown: small tags and cut ends)
chain: LPAPKNLVVSRVTEDSARLSWHATFGDPFDSFLIQYQESEKVGEAIVLTVPGSERSYDLTGLKPGTEYTVSIYGVGRHYTVYDSNPLSAIFTT
notes: FN3 domain; E. coli lysate in the ELISA
B2: ISOP194BR9P1F7 (designed binder, not shown: small tags and cut ends)
chain: LPAPKNLVVSRVTEDSARLSWFNADEEYFDSFLIQYQESEKVGEAIVLTVPGSERSYDLTGLKPGTEYTVSIYGVYTRGRYEWRESNPLSAIFTT
notes: as for B1
B3: ISOP194AR9P1C5 (designed binder, not shown: small tags and cut ends)
chain: LPAPKNLVVSRVTEDSARLSWLRDFNGRAFFDSFLIQYQESEKVGEAIVLTVPGSERSYDPTGLKPGTEYTVSIYGVFITWIHVRSNPLSAIFTT
notes: as for B1
B4: ISOP194AR9P1H3 (designed binder, not shown: small tags and cut ends)
chain: LPAPKNLVVSRVTEDSARLSWNASWISHNFFDSFLIQYQESEKVGEAIVLTVPGSERSYDLTGLKPGTEYTVSIYGVYERKTAFYSNPLSAIFTT
notes: as for B1
B5: ISOP194HR9P1B10 (designed binder, not shown: small tags and cut ends)
chain: LPAPKNLVVSRVTEDSARLSWTAPDAAFDSFPIRYYERANGEAIVLTVPGSERSYDLTGLKPGTEYIVWIYGVKGGGRSGPLSAIFTT
notes: as for B1
B6: ISOP121BR5P1B7 (designed binder, not shown: small tags and cut ends)
chain: LPAPKNLVVSRITEDSARLSWKWEEGFFDSFLIQYQESEKVGEAIVLTVPGSERSYDLTGLKPGTEYTVSIYGVYQRHASAFVSNPLSAIFTT
notes: as for B1
B7: ISOP194GR9P1F6 (designed binder, not shown: small tags and cut ends)
chain: LPAPKNLVVSRVTEDSARLSWTAPDAAFDSFWIDYWERLSEGEAIALRVPGSERSYDLTGLKPGTEYYVWIVGVKGGKFSQPLRAWFTT
notes: as for B1
B8: ISOP194GR9P1F9 (designed binder, not shown: small tags and cut ends)
chain: LPAPKNLVVSRVTEDSARLSWTAPDAAFDSFWIFYNERWQNGEAIRLIVPGSERSYDLTGLKPGTEYSVIIPGVKGGRNSFPLWAWFTT
notes: as for B1
B9: ISOP194ER9P1E6 (designed binder, not shown: small tags and cut ends)
chain: LPAPKNLVVSRVTEDSARLSWTAPDAAFDSFWIKYYEKRNPGEAIVLTVPGSERSYDLTGLKPGTEYLVIISGVKGGSRSVPLSAIFTT
notes: as for B1
B10: ISOP121AR5P1F9 (designed binder, not shown: small tags and cut ends)
chain: LPAPKNLVVSRVTEDSARLSWGWSELIATHFDSFLIQYQESEKVGEAIVLTVPGSERSYDLTGLKPGTEYTVSIYGVYNRKVNFYSNPLSAIFTT
notes: as for B1
B11: ISOP121AR5P1F2 (designed binder, not shown: small tags and cut ends)
chain: B10 chain with V9I
notes: as for B1
B12: ISOP194AR9P1H1 (designed binder, not shown: small tags and cut ends)
chain: B10 chain with G22W, W23R, S24V, E25L, L26G, I27H, A28S, T29H, H30F
notes: as for B1
B13: ISOP121FR5P1G1 (designed binder, not shown: small tags and cut ends)
chain: LPAPKNLVVSRVTEDSARLSWTAPDAAFDSFWIHYTEAPVHGEAIVLTVPGSERSYDLTGLKPGTEYTVVIWGVKGGTWSSPLSAIFTT
notes: as for B1
B14: ISOP121BR5P1D3 (designed binder, not shown: small tags and cut ends)
chain: LPAPKNLVVSRVTEDSARLSWYEDNTERFDSFLIQYQESEKVGEAIVLTVPGSERSYDLTGLKPGTEYTVSIYGVYIRVQVLWFSNPLSAIFTT
notes: as for B1
B15: ISOP194BR9P1D10 (designed binder, not shown: small tags and cut ends)
chain: B14 chain with G43V
notes: as for B1
B16: ISOP194AR9P1D11 (designed binder, not shown: small tags and cut ends)
chain: LPAPKNLVVSRVTEDSGRLSWQHHISFFDSFLIQYQESEKVGEAIVLTVPGSERSYDLTGLKPGTEYTVSIYGVYNRKVNFYSNPLSAIFTT
notes: as for B1
B17: ISOP121BR5P1G2 (designed binder, not shown: small tags and cut ends)
chain: LPAPKNLVVSRVTEDSARLSWADELHHANHFDSFLIQYQESEKVGEAIVLTVPGSERSYDLTGLKPGTEYTVSIYGVYDRHYEIHFYSNPLSAIFTT
notes: as for B1
B18: ISOP121HR5P1H2 (designed binder, not shown: small tags and cut ends)
chain: LPAPKNLVVSRVTEDSARLSWTAPDAAFDSFDIYYLEYDYSGEAIVLTVPGSERSYDLTGLKPGTEYDVLIIGVKGGSLSTPLSAIFTT
notes: as for B1
B19: ISOP121FR5P1G11 (designed binder, not shown: small tags and cut ends)
chain: LPAPKNLVVSRVTEDSARLSWTAPDAAFDSFSIWYLEIVAHGEAIVLTVPGSERSYDLTGLKPGTEYEVIIHGVKGCGPSGPLSAIFTT
notes: as for B1
B20: ISOP121AR5P1E7 (designed binder, not shown: small tags and cut ends)
chain: LPAPKNLVVSRVTEDSARLSWHVYHEIDYFDSFLIQYQESEKVGEAIVLTVPGSERSYDLTGLKPGTEYTVSIYGVYQRKVEFYSNPLSAIFTT
notes: as for B1
B21: ISOP121GR5P1F6 (designed binder, not shown: small tags and cut ends)
chain: LPAPKNLVVSRVTEDSARLSWTAPDAAFDSFDIRYHEYTWPGEAIVLLVPGSERSYDLTGLKPGTEYGVYINGVKGGFRSKPLFAWFTTGG
notes: as for B1
B22: ISOP121BR5P1E9 (designed binder, not shown: small tags and cut ends)
chain: LPAPKNLVVSRVTEDSARLSWDSYRDYFDSFLIQYQESEKVGEAIVLTVPGSERSYDLTGLKPGTEYTVSIYGVYSRKHVVFVQSNPLSAIFTT
notes: as for B1
B23: ISOP121BR5P1F7 (designed binder, not shown: small tags and cut ends)
chain: LPAPKNLVVSRVTEDSARLSWHDATWQYFDSFLIQYQESEKVGEAIVLTVPGSERSYDLTGLKPGTEYTVSIYGVFHRKHIDFVSNPLSAIFTT
notes: as for B1
B24: ISOP121AR5P1F7 (designed binder, not shown: small tags and cut ends)
chain: LPAPKNLVVSRVTEDSARLSWQEHWDTSSNFDSFLIQYQESEKVGEAIVLTVPGSERSYDLTGLKPGTEYTISIYGVYNRKVLFYSNPLSAIFTT
notes: as for B1
B25: ISOP121BR5P1H6 (designed binder, not shown: small tags and cut ends)
chain: LPAPKNLVVSRVTEDSARLSWGYIDVSYFDSFLIQYQESEKVGEAIVLTVPGSERSYDLTGLKPGTEYTVSIYGVYSRPKAEFTSNPLSAIFTT
notes: as for B1
B26: ISOP121GR5P1A2 (designed binder, not shown: small tags and cut ends)
chain: B8 chain with W32K, F34Q, N36I, W39Y, Q40I, N41P, R46Q, I48N
notes: as for B1
B27: ISOP121AR5P1H5 (designed binder, not shown: small tags and cut ends)
chain: LPAPKNLVVSRVTEDSARLSWEDAVKHIWFDSFLIQYQESEKVGEAIVLTVPGSERSYDLTGLKPGTEYTVSIYGVWIASVWRSNPLSAIFTT
notes: as for B1
B28: ISOP121AR5P1G10 (designed binder, not shown: small tags and cut ends)
chain: LPAPKNLVVSRVTEDSARLSWEWLEHFDSFLIQYQESEKVGEAIVLTVPGSERSYDLTGLKPGTEYTVSIYGVYQRKVEFHSNPLSAIFTTT
notes: as for B1
B29: ISOP121AR5P1F3 (designed binder, not shown: small tags and cut ends)
chain: LPAPKNLVVSRVTEDSARLSWPFNNYSEHFDSFLIQYQESEKVGEAIVLTVPGSERSYDLTGLKPGTEYTVSIYGVYERKTAFYSNPLSAIFTT
notes: as for B1
B30: ISOP121BR5P1E2 (designed binder, not shown: small tags and cut ends)
chain: LPAPKNLVVSRVTEDSARLSWWFPLEWFDSFLIQYQESEKVGEAIVLTVPGSERSYDLTGLKPGTEYTVSIYGVYTREHKSVWASNPLSAIFTT
notes: as for B1
B31: ISOP121BR5P1A6 (designed binder, not shown: small tags and cut ends)
chain: LPAPKNLVVSRVTEDSARLSWASWLVAFFDSFLIQYQESEKVGEAIVLTVPGSERSYDLTGLKPGTEYTVSIYGVYQRHASAFVSNPLSAIFTT
notes: as for B1

Biological target: human serum albumin (human) (UniProt P02768)
Sequence (P02768 25-609 limits assumed): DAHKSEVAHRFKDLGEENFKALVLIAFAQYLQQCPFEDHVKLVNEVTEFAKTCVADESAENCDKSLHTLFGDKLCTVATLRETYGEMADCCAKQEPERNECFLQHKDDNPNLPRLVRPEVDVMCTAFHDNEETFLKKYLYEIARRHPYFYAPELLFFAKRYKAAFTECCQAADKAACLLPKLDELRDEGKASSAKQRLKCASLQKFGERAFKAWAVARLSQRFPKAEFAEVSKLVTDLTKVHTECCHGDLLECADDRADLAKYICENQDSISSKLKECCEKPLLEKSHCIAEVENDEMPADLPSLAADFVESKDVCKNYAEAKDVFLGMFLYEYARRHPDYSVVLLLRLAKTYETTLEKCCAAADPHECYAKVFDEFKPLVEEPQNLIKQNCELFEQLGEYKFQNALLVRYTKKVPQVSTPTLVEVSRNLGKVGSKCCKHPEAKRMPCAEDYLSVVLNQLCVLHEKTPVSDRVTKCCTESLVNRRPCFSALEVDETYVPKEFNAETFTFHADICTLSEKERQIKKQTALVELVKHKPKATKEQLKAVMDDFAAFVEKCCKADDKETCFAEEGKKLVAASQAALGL
Assay: ELISA, lysate on plate-bound antigen

| Binder | ELISA HSA (RSU) |
| --- | --- |
| B1 | 880 |
| B2 | 1760 |
| B3 | 1040 |
| B4 | 4880 |
| B5 | 1840 |
| B6 | 480 |
| B7 | 1200 |
| B8 | 800 |
| B9 | 720 |
| B10 | 1040 |
| B11 | 960 |
| B12 | 6800 |
| B13 | 400 |
| B14 | 800 |
| B15 | 1120 |
| B16 | 12700 |

| Binder | ELISA HSA (RSU) |
| --- | --- |
| B17 | 560 |
| B18 | 560 |
| B19 | 480 |
| B20 | 6560 |
| B21 | 640 |
| B22 | 800 |
| B23 | 880 |
| B24 | 1040 |
| B25 | 1040 |
| B26 | 720 |
| B27 | 1120 |
| B28 | 1280 |
| B29 | 960 |
| B30 | 720 |
| B31 | 720 |

Biological target: unrelated Fc-fused recombinant protein
Assay: ELISA, lysate on plate-bound antigen

| Binder | ELISA Fc Control (RSU) |
| --- | --- |
| B1 | 1200 |
| B2 | 1920 |
| B3 | 3440 |
| B4 | 9200 |
| B5 | 560 |
| B6 | 640 |
| B7 | 400 |
| B8 | 320 |
| B9 | 240 |
| B10 | 1120 |
| B11 | 880 |
| B12 | 15700 |
| B13 | 640 |
| B14 | 800 |
| B15 | 720 |
| B16 | 28200 |

| Binder | ELISA Fc Control (RSU) |
| --- | --- |
| B17 | 800 |
| B18 | 720 |
| B19 | 880 |
| B20 | 4240 |
| B21 | 640 |
| B22 | 960 |
| B23 | 720 |
| B24 | 720 |
| B25 | 1440 |
| B26 | 720 |
| B27 | 960 |
| B28 | 1360 |
| B29 | 800 |
| B30 | 800 |
| B31 | 720 |

Biological target: T1, recombinant biotinylated PD-L1 (rhPD-L1/Fc Chimera, R&D Systems 156-B7) (human, UniProt Q9NZQ7 19-238, biotinylated (sites not given))
T1 construct: Bought Fc chimera; also called human PD-L1
T1 sequence (Q9NZQ7 19-238, change not shown): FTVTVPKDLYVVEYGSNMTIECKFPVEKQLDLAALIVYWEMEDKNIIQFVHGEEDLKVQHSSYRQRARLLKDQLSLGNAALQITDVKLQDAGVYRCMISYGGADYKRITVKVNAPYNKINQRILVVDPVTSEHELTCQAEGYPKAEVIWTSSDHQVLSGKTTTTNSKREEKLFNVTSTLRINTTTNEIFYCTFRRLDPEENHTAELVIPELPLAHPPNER
Assay: ELISA, lysate on plate-bound antigen
Method: Streptavidin-coated Maxisorp plates (Nunc catalog 436110) were blocked for 1 h in Starting Block T20 (Pierce) and then coated with biotinylated PD-L1 (using same antigen as in panning) or negative controls (an unrelated Fc-fused recombinant protein and human serum albumin) for 1 h. Plates were rinsed with TBST and diluted lysate was applied to plates for 1 h. Following additional rinses, wells were treated with HRP-conjugated anti-FN3 domain antibody (PAB25) for 1 h and then assayed with POD (Roche catalog 11582950001).

| Binder | ELISA PD-L1 Fc (RSU) |
| --- | --- |
| B1 | 17000 |
| B2 | 1.52e+07 |
| B3 | 4.37e+06 |
| B4 | 1.77e+07 |
| B5 | 385000 |
| B6 | 11400 |
| B7 | 319000 |
| B8 | 105000 |
| B9 | 8.98e+06 |
| B10 | 136000 |
| B11 | 51000 |
| B12 | 2.14e+07 |
| B13 | 10000 |
| B14 | 75800 |
| B15 | 1.67e+06 |
| B16 | 1.04e+06 |

| Binder | ELISA PD-L1 Fc (RSU) |
| --- | --- |
| B17 | 16700 |
| B18 | 21000 |
| B19 | 18600 |
| B20 | 327000 |
| B21 | 32100 |
| B22 | 42000 |
| B23 | 12900 |
| B24 | 64000 |
| B25 | 74600 |
| B26 | 61700 |
| B27 | 171000 |
| B28 | 232000 |
| B29 | 180000 |
| B30 | 137000 |
| B31 | 11000 |
